Measured values taken from patent publication US20230357348A1 (AstraZeneca / MedImmune, published 2023).
Starred links: 1 amine or outer side, 2 acyl side, 3 side chain; linkers in the order of their positions; H or OH if unused. Non-standard residues stand in square brackets, D forms with d. Groups on a side chain read outwards from the residue. No end group written: not given here. *: point of attachment. C20 diacid = O=C(O)CCCCCCCCCCCCCCCCCCC(=O)*; C18 diacid = O=C(O)CCCCCCCCCCCCCCCCC(=O)*; γGlu = O=C(O)[C@H](CCC(=O)[*:2])N[*:1]; αMeF = C[C@](N)(Cc1ccccc1)C(=O)O; AEEA = NCCOCCOCC(=O)O; Aib = CC(C)(N)C(=O)O

B1: Peptide 296 (peptide)
peptide: H[Aib]HGS[αMeF]TSDVSK[Aib]LDSRAAK([AEEA-AEEA-γGlu-C18 diacid])D[αMeF]VQ[Aib]IANT-NH2
modifications: N-terminus assumed
SMILES: CC[C@H](C)[C@H](NC(=O)C(C)(C)NC(=O)[C@H](CCC(N)=O)NC(=O)[C@@H](NC(=O)[C@](C)(Cc1ccccc1)NC(=O)[C@H](CC(=O)O)NC(=O)[C@H](CCCCNC(=O)COCCOCCNC(=O)COCCOCCNC(=O)CC[C@H](NC(=O)CCCCCCCCCCCCCCCCC(=O)O)C(=O)O)NC(=O)[C@H](C)NC(=O)[C@H](C)NC(=O)[C@H](CCCNC(=N)N)NC(=O)[C@H](CO)NC(=O)[C@H](CC(=O)O)NC(=O)[C@H](CC(C)C)NC(=O)C(C)(C)NC(=O)[C@H](CCCCN)NC(=O)[C@H](CO)NC(=O)[C@@H](NC(=O)[C@H](CC(=O)O)NC(=O)[C@H](CO)NC(=O)[C@@H](NC(=O)[C@](C)(Cc1ccccc1)NC(=O)[C@H](CO)NC(=O)CNC(=O)[C@H](Cc1c[nH]cn1)NC(=O)C(C)(C)NC(=O)[C@@H](N)Cc1c[nH]cn1)[C@@H](C)O)C(C)C)C(C)C)C(=O)N[C@@H](C)C(=O)N[C@@H](CC(N)=O)C(=O)N[C@H](C(N)=O)[C@@H](C)O
B2: Peptide 271 (peptide)
peptide: H[Aib]HGS[αMeF]TSDVSK[αMeF]LDSRAAK([γGlu-C18 diacid])D[αMeF]VQ[Aib]IANT-NH2
modifications: N-terminus assumed
SMILES: CC[C@H](C)[C@H](NC(=O)C(C)(C)NC(=O)[C@H](CCC(N)=O)NC(=O)[C@@H](NC(=O)[C@](C)(Cc1ccccc1)NC(=O)[C@H](CC(=O)O)NC(=O)[C@H](CCCCNC(=O)CC[C@H](NC(=O)CCCCCCCCCCCCCCCCC(=O)O)C(=O)O)NC(=O)[C@H](C)NC(=O)[C@H](C)NC(=O)[C@H](CCCNC(=N)N)NC(=O)[C@H](CO)NC(=O)[C@H](CC(=O)O)NC(=O)[C@H](CC(C)C)NC(=O)[C@](C)(Cc1ccccc1)NC(=O)[C@H](CCCCN)NC(=O)[C@H](CO)NC(=O)[C@@H](NC(=O)[C@H](CC(=O)O)NC(=O)[C@H](CO)NC(=O)[C@@H](NC(=O)[C@](C)(Cc1ccccc1)NC(=O)[C@H](CO)NC(=O)CNC(=O)[C@H](Cc1c[nH]cn1)NC(=O)C(C)(C)NC(=O)[C@@H](N)Cc1c[nH]cn1)[C@@H](C)O)C(C)C)C(C)C)C(=O)N[C@@H](C)C(=O)N[C@@H](CC(N)=O)C(=O)N[C@H](C(N)=O)[C@@H](C)O
B3: Peptide 300 (peptide)
peptide: H[Aib]HGS[αMeF]TSDVSK[αMeF]LDSRAAK([AEEA-AEEA-γGlu-C18 diacid])D[αMeF]VQ[Aib]IAET-NH2
modifications: N-terminus assumed
SMILES: CC[C@H](C)[C@H](NC(=O)C(C)(C)NC(=O)[C@H](CCC(N)=O)NC(=O)[C@@H](NC(=O)[C@](C)(Cc1ccccc1)NC(=O)[C@H](CC(=O)O)NC(=O)[C@H](CCCCNC(=O)COCCOCCNC(=O)COCCOCCNC(=O)CC[C@H](NC(=O)CCCCCCCCCCCCCCCCC(=O)O)C(=O)O)NC(=O)[C@H](C)NC(=O)[C@H](C)NC(=O)[C@H](CCCNC(=N)N)NC(=O)[C@H](CO)NC(=O)[C@H](CC(=O)O)NC(=O)[C@H](CC(C)C)NC(=O)[C@](C)(Cc1ccccc1)NC(=O)[C@H](CCCCN)NC(=O)[C@H](CO)NC(=O)[C@@H](NC(=O)[C@H](CC(=O)O)NC(=O)[C@H](CO)NC(=O)[C@@H](NC(=O)[C@](C)(Cc1ccccc1)NC(=O)[C@H](CO)NC(=O)CNC(=O)[C@H](Cc1c[nH]cn1)NC(=O)C(C)(C)NC(=O)[C@@H](N)Cc1c[nH]cn1)[C@@H](C)O)C(C)C)C(C)C)C(=O)N[C@@H](C)C(=O)N[C@@H](CCC(=O)O)C(=O)N[C@H](C(N)=O)[C@@H](C)O
B4: Peptide 298 (peptide)
peptide: H[Aib]HGS[αMeF]TSDVSR[αMeF]LDSRAAK([AEEA-AEEA-γGlu-γGlu-C20 diacid])D[αMeF]VQ[Aib]IANT-NH2
modifications: N-terminus assumed
SMILES: CC[C@H](C)[C@H](NC(=O)C(C)(C)NC(=O)[C@H](CCC(N)=O)NC(=O)[C@@H](NC(=O)[C@](C)(Cc1ccccc1)NC(=O)[C@H](CC(=O)O)NC(=O)[C@H](CCCCNC(=O)COCCOCCNC(=O)COCCOCCNC(=O)CC[C@H](NC(=O)CC[C@H](NC(=O)CCCCCCCCCCCCCCCCCCC(=O)O)C(=O)O)C(=O)O)NC(=O)[C@H](C)NC(=O)[C@H](C)NC(=O)[C@H](CCCNC(=N)N)NC(=O)[C@H](CO)NC(=O)[C@H](CC(=O)O)NC(=O)[C@H](CC(C)C)NC(=O)[C@](C)(Cc1ccccc1)NC(=O)[C@H](CCCNC(=N)N)NC(=O)[C@H](CO)NC(=O)[C@@H](NC(=O)[C@H](CC(=O)O)NC(=O)[C@H](CO)NC(=O)[C@@H](NC(=O)[C@](C)(Cc1ccccc1)NC(=O)[C@H](CO)NC(=O)CNC(=O)[C@H](Cc1c[nH]cn1)NC(=O)C(C)(C)NC(=O)[C@@H](N)Cc1c[nH]cn1)[C@@H](C)O)C(C)C)C(C)C)C(=O)N[C@@H](C)C(=O)N[C@@H](CC(N)=O)C(=O)N[C@H](C(N)=O)[C@@H](C)O

These binders were tested against human GLP-1 receptor (human, UniProt P43220 24-463) (assay: cell-based or functional assay).

Row | hGLP-1R EC50 (pM), cAMP [pM] | Binder
1 | 42.7 | H[Aib]HGS[αMeF]TSDVSK[αMeF]LDSRAAK([AEEA-AEEA-γGlu-C18 diacid])D[αMeF]VQWIANT-NH2 (not fully specified; also: F22: αMePhe per table) [Peptide 288]
2 | 111 | H[Aib]HGS[αMeF]TSDVSK[αMeF]LDSRAAK([γGlu-γGlu-C20 diacid])D[αMeF]VQ[Aib]IANT-NH2 [Peptide 275]
3 | 64.1 | B1
4 | 54.6 | B2
5 | 22.1 | H[Aib]HGS[αMeF]TSDVSK[αMeF]LDSRAAK([AEEA-C18 diacid])D[αMeF]VQ[Aib]IANT-NH2 [Peptide 273]
6 | 129 | H[Aib]HGS[αMeF]TSDVSKYLDSRAAK([AEEA-AEEA-γGlu-γGlu-C20 diacid])D[αMeF]VQ[Aib]IANT-NH2 (also: F6: αMePhe per table, X13: αMePhe, Y per table) [Peptide 283]
7 | 143 | H[Aib]HGS[αMeF]TSDVSK[αMeF]LDSRAAK([γGlu-C20 diacid])D[αMeF]VQ[Aib]IANT-NH2 [Peptide 276]
8 | 1230 | H[Aib]HGS[αMeF]TSDVSK[αMeF]LDSRAAK([AEEA-AEEA-γGlu-γGlu-C20 diacid])D[αMeF]VQ[Aib]IANT-NH2 (also: S2: Aib per table, X6: αMePhe, F per table) [Peptide 282]
9 | 31.6 | H[Aib]HGS[αMeF]TSDVSKYLDSRAAK([AEEA-AEEA-γGlu-C18 diacid])D[αMeF]VQ[Aib]IANT-NH2 (also: F6: αMePhe per table, X13: αMePhe, Y per table) [Peptide 286]
10 | 27.5 | H[Aib]HGS[αMeF]TSDVSK[αMeF]LDSRAAK([AEEA-AEEA-γGlu-C18 diacid])DFVQ[Aib]IANT-NH2 (not fully specified; also: Y13: αMePhe per table) [Peptide 287]
11 | 24.4 | H[Aib]HGS[αMeF]TSDVSK[αMeF]LDSRAAK([γGlu-γGlu-C18 diacid])D[αMeF]VQ[Aib]IANT-NH2 [Peptide 270]
12 | 78.3 | H[Aib]HGS[αMeF]TSDVSK[αMeF]LDSRAAK([AEEA-AEEA-γGlu-C20 diacid])D[αMeF]VQ[Aib]IANT-NH2 [Peptide 280]
13 | 78.9 | H[Aib]HGS[αMeF]TSDVSK[αMeF]LDSRAAK([AEEA-C20 diacid])D[αMeF]VQ[Aib]IANT-NH2 [Peptide 278]
14 | 301 | HSHGS[αMeF]TSDVSK[αMeF]LDSRAAK([AEEA-AEEA-γGlu-C18 diacid])D[αMeF]VQ[Aib]IANT-NH2 (not fully specified; also: S2: Aib per table) [Peptide 285]
15 | 19.7 | B3
16 | 28.7 | H[Aib]HGS[αMeF]TSDVSKYLDSRAAKDFVQWIANT-NH2 (not fully specified (residue 20); also: F6: αMePhe per table) [Peptide 292]
17 | 27.1 | H[Aib]HGS[αMeF]TSDVSK[αMeF]LDSRAAK([AEEA-γGlu-γGlu-C18 diacid])D[αMeF]VQ[Aib]IANT-NH2 [Peptide 274]
18 | 75.5 | B4
19 | 49.5 | H[Aib]HGS[αMeF]TSDVSK[αMeF]LDSRAAK([AEEA-AEEA-C20 diacid])D[αMeF]VQ[Aib]IANT-NH2 [Peptide 277]
20 | 86.5 | H[Aib]HGS[αMeF]TSDVSK[αMeF]LDSRAAK([AEEA-γGlu-γGlu-C20 diacid])D[αMeF]VQ[Aib]IANT-NH2 [Peptide 279]
21 | 15.7 | H[Aib]HGS[αMeF]TSDVSK[αMeF]LDSRAAK([AEEA-AEEA-C18 diacid])D[αMeF]VQ[Aib]IANT-NH2 [Peptide 272]

These binders were tested against human glucagon receptor (human, UniProt P47871 26-477) (assay: cell-based or functional assay).
Sequence of human glucagon receptor (P47871 26-477): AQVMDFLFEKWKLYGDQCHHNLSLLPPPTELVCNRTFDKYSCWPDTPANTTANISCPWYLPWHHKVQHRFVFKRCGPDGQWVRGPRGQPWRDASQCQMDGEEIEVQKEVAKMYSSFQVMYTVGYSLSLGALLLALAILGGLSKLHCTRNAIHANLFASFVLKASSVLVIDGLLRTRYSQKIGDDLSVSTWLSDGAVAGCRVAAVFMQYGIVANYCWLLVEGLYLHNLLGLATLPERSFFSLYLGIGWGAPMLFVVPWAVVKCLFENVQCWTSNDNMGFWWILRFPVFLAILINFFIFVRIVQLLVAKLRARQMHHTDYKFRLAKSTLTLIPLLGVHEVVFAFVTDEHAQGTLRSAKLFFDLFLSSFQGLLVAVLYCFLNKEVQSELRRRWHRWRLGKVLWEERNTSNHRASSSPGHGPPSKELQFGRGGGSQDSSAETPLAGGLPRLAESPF

Row | hGluc-R EC50 (pM), cAMP [pM] | Binder
22 | 26.9 | H[Aib]HGS[αMeF]TSDVSK[αMeF]LDSRAAK([AEEA-AEEA-γGlu-C18 diacid])D[αMeF]VQWIANT-NH2 (not fully specified; also: F22: αMePhe per table) [Peptide 288]
23 | 175 | H[Aib]HGS[αMeF]TSDVSK[αMeF]LDSRAAK([γGlu-γGlu-C20 diacid])D[αMeF]VQ[Aib]IANT-NH2 [Peptide 275]
24 | 3250 | B1
25 | 28 | B2
26 | 23.3 | H[Aib]HGS[αMeF]TSDVSK[αMeF]LDSRAAK([AEEA-C18 diacid])D[αMeF]VQ[Aib]IANT-NH2 [Peptide 273]
27 | 552 | H[Aib]HGS[αMeF]TSDVSKYLDSRAAK([AEEA-AEEA-γGlu-γGlu-C20 diacid])D[αMeF]VQ[Aib]IANT-NH2 (also: F6: αMePhe per table, X13: αMePhe, Y per table) [Peptide 283]
28 | 91.4 | H[Aib]HGS[αMeF]TSDVSK[αMeF]LDSRAAK([γGlu-C20 diacid])D[αMeF]VQ[Aib]IANT-NH2 [Peptide 276]
29 | 1140 | H[Aib]HGS[αMeF]TSDVSK[αMeF]LDSRAAK([AEEA-AEEA-γGlu-γGlu-C20 diacid])D[αMeF]VQ[Aib]IANT-NH2 (also: S2: Aib per table, X6: αMePhe, F per table) [Peptide 282]
30 | 53 | H[Aib]HGS[αMeF]TSDVSKYLDSRAAK([AEEA-AEEA-γGlu-C18 diacid])D[αMeF]VQ[Aib]IANT-NH2 (also: F6: αMePhe per table, X13: αMePhe, Y per table) [Peptide 286]
31 | 26.5 | H[Aib]HGS[αMeF]TSDVSK[αMeF]LDSRAAK([AEEA-AEEA-γGlu-C18 diacid])DFVQ[Aib]IANT-NH2 (not fully specified; also: Y13: αMePhe per table) [Peptide 287]
32 | 31.3 | H[Aib]HGS[αMeF]TSDVSK[αMeF]LDSRAAK([γGlu-γGlu-C18 diacid])D[αMeF]VQ[Aib]IANT-NH2 [Peptide 270]
33 | 155 | H[Aib]HGS[αMeF]TSDVSK[αMeF]LDSRAAK([AEEA-AEEA-γGlu-C20 diacid])D[αMeF]VQ[Aib]IANT-NH2 [Peptide 280]
34 | 83.5 | H[Aib]HGS[αMeF]TSDVSK[αMeF]LDSRAAK([AEEA-C20 diacid])D[αMeF]VQ[Aib]IANT-NH2 [Peptide 278]
35 | 87 | HSHGS[αMeF]TSDVSK[αMeF]LDSRAAK([AEEA-AEEA-γGlu-C18 diacid])D[αMeF]VQ[Aib]IANT-NH2 (not fully specified; also: S2: Aib per table) [Peptide 285]
36 | 18.4 | B3
37 | 20.4 | H[Aib]HGS[αMeF]TSDVSKYLDSRAAKDFVQWIANT-NH2 (not fully specified (residue 20); also: F6: αMePhe per table) [Peptide 292]
38 | 31.3 | H[Aib]HGS[αMeF]TSDVSK[αMeF]LDSRAAK([AEEA-γGlu-γGlu-C18 diacid])D[αMeF]VQ[Aib]IANT-NH2 [Peptide 274]
39 | 573 | B4
40 | 57.3 | H[Aib]HGS[αMeF]TSDVSK[αMeF]LDSRAAK([AEEA-AEEA-C20 diacid])D[αMeF]VQ[Aib]IANT-NH2 [Peptide 277]
41 | 150 | H[Aib]HGS[αMeF]TSDVSK[αMeF]LDSRAAK([AEEA-γGlu-γGlu-C20 diacid])D[αMeF]VQ[Aib]IANT-NH2 [Peptide 279]
42 | 14.3 | H[Aib]HGS[αMeF]TSDVSK[αMeF]LDSRAAK([AEEA-AEEA-C18 diacid])D[αMeF]VQ[Aib]IANT-NH2 [Peptide 272]
